The results in this text go back to a protein production outcome set (Wang et al. 2014).
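Also: failed if final PepcDB status was selected cloned or expressed and not failed if soluble or beyond.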

The data set can be described thus: label from the status in PepcDB records.
Turning to “DKLDLSPIDYYGSGSYWKTEAQATAYIDGIHKHLRDAAWQHTITFGELRGGRFITGASSDGMGVSNGDIILQNFDETHTGVSKFGDLFGRITNLNLFIARVTDATYLSDEMKNFYLGEVYGLRAFYYFDLYRIYGGVPLRLTADVVEGVIDPNKLYMARSTPKEVMTQIKSDLNKSMEYFGNMNDFDPYKRGKKVYWSKAATECLMGEVYLWTSKVTTGDDVANPADLTIAKTHLESVLNNYNLKMLDDFSQVFNAKNKANDEIIFAIRFLEGEATNSNGTFTYNVGTGSTKNRYQANGEVFGDALDIQNTGNQTYEYNKAVYQNFDDADTRKEATFIASYNKDGKTGELSLYGTHVRKNIGYVNAQGARVYCGDYIFYRLPWVYLTLAEIANMEGDNAAVAKYINLVRKRAYGNAWDETLYAYPETADFTTNELAILHEKDKEFIQEGQRWWDLRRMTLTKGGTPLVFCKEGSLLGDAPILNKSTEAHKLLWPIEKTMLNKDPALEQTPGYK”, the protein production entry is reported as “not failed”.

For the sequence “DMKQLAEDVKLQLYKLLEIPDPDKNWATLAQKLGLGILNNAFRLSPAPSKTLMDNYEVSGGTVRELVEALRQMGYTEAIEVIQAASS”, the protein production entry is reported as “not failed”.

Turning to “DNDAEALLWSELRDRRLNGFKFVRQVAVGPYFADFACRDERLVVEVDGSQHQIGSGDARRDKFMVMNGWSVLRFWNTDIFNDRAAVLETIVAVLEKRLVREVRSAD”, the protein production result is reported as “failed”.

For “DNYRTTGIATIEVFLPPRLKKDRKNLLETRLHITGRELRSKIAETFGLQENYIKIVINKKQLQLGKTLEEQGVAHNVKAMVLELKQS”, the protein production entry is given as “not failed”.

Consider “DPSVFSLPDSKLPGDKEFVPWQQDLDDSVKPTQQARPTVIRWSEGGKEVFISGSFNNWSTKIPLIKSHNDFVAILDLPEGEHQYKFFVDGQWVHDPSEPVVTSQLGTINNLIHVKKSDFEVFDALKLDSMESSETSCRV”, for which the protein production result was “failed”.

Consider “DQEPPLYVNENDIFTSPTRIEATLNGLYAAIKNTGTKSLMGGKSYLVFDNRGDDVINISNNLVTLFNTYNMNVGITDAENADTWTYAYLAINKVNTFLQSLEGAREVAGENYDRYVQEAKFVRALAYYYLNNLYPTPYSVNPDAKSVPLRLTAEAGTENNNMPRSTVKQIYEHILSDLENISALDTEVNTYTGVTHATQAAANMLKMRVYMAMNEWDKAITAGELVTGYSLPEDVTLIYKAPYFSQESIFSLPMADTNIPNTQQSLAEYYYDGKIMLIDTKSGIMSKPDYSLATDKRIIAFKGEKDLLMKFTDAKTKLQWVPIFRYAETLLDLAECYANKAGGEATAKSLLKQVRGRSVDAATDPLNIDNLSGDALKEAIYNEKRLEFIGEGIRGIDIMRRGEHFIKVGENETINVGPSDEKYTWPIPQVELLLNKDINK”, for which the protein production entry was “not failed”.

“DQKGDKVVIRGNNYVSIATGLNWYLKYYAGIHLSWNGMQAKLPAVLPPVTKKERRETTLPYRYDLNYCTFSYSMAFWDWNRWEKEIDWMALHGINIPLAVTGAEAVWHNVLDKLGYTKTEINEFISGPGFFAWWLMNNLEGWGGPNPDSWYTRQIALQKKILKRMREYGIEPVLPGYCGMVPHNAKEKLGLNVSDPGTWCGYRRPAFLQPSDPRFEEISSLYYKELEKLYGKANFYSMDPFHEGGNTAGVDLDAAGKAVMKAMKKANPKAVWVAQAWQANPRPKMIENLKAGDLLILDLTSECRPQWGDSTSEWYRKNGYGQHDWIYCMLLNYGGNVGLHGKMDNVIDNFYLAKADPHASATLKGVGMTPEGIENNPVMYELVMELPWRPDRFTKEEWLKEYVKARYGVDDPVVQAAWTNLANSIYNSPKNLTQQGTHESVFCARPAEDVYQVSSWSEMKDYYRPQEVIEAARLMVSVADRFKGNNNFEYDLVDIVRQALAEKGRLMQKAVTAAYRAGDKQLFALASGKFLDLILLQDKLLGTRPEFRVGKWIEEARALGDTPEEKELYEWNARVQITTWGNRNAADYGGLRDYAHKEWNGLLKDFYYMRWKLYFDFLSQRIEGKTPAEIDFYAIEEPWTKAANPYSAEAEGDCIEVAKQVMQAVE”: the protein production entry is given as “failed”.

Consider “DRDQTLALMAQMTIPTLATWCAVYTIADQASEPYLSYVLHEDEDRIDGVKALLSKIPPPEPIPTPGARVWSAPAQAAHEAALRTSMRSLGLGEPATVSSGIGTTLATASAVGGETVVLPLVARNRVIGMLTLGKPSDEHFRQEILELAEDLSRRAALALDNARLYSERTAISQSLQRSLLPPDLPHI”, for which the protein production entry was “failed”.

As to “DRIYLVAPEDIYLVSVEERQLSIFVDQQVYKMTGTLNSIEQKLPATLFIKTHRSFILNRTKIQEIQPWFNNTLQVILTNGSKVPVSRSYVKEFKEKLGLS”, the protein production result is “failed”.
